Where “and” joins values, the source holds several entries; their conditions need not be identical. Equal entries are not always repeated. Where two headings read alike, the source gives them in different places.
Legend:
human CCR8 [1] = target: T1, human CCR8 (human, UniProt P51685 1-355); assay: cell-based or functional assay
human CCR8 [2] = target: T1, human CCR8; assay: cell-based or functional assay; remark: listed apart in the source
human CCR8 [3] = target: T1, human CCR8; assay: cell-based or functional assay; remark: listed apart in the source
pm1 = target: T2, pm1 (sulfated tyrosine(s) among Y15, Y16, Y17; which ones is not told (the underlining of Table 1 is lost in the text)); assay: ELISA on coated peptide [cont.]
T2 construct: also called sulfated CCR8 N-terminal peptide pm1
Procedure, shortened: (§1)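 Wells were coated with CCR8-related peptides at 500 ng/ml in carbonate/bicarbonate buffer. Anti-CCR8 mAbs were tested from 1 μg/mL in 1/10 dilutions and bound for 90 min at room temperature. Detection used TMB for 15 min with an optical density read-out.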

pm2 = target: T3, pm2 (sulfated tyrosine(s) among Y15, Y16, Y17; which ones is not told (the underlining of Table 1 is lost in the text)); assay: ELISA on coated peptide [cont.]
T3 construct: also called sulfated CCR8 N-terminal peptide pm2
Procedure, shortened: as §1

pm3 = target: T4, pm3 (Y17 sulfated; Y15 and Y16 not sulfated); assay: ELISA on coated peptide [cont.]
T4 construct: also called sulfated CCR8 N-terminal peptide pm3
Procedure, shortened: as §1

pm4 = target: T5, pm4 (sulfated tyrosine(s) among Y15, Y16, Y17; which ones is not told (the underlining of Table 1 is lost in the text)); assay: ELISA on coated peptide [cont.]
T5 construct: also called sulfated CCR8 N-terminal peptide pm4
Procedure, shortened: as §1

pm5 = target: T6, pm5 (Y15 and Y17 sulfated; Y16 not sulfated); assay: ELISA on coated peptide [cont.]
T6 construct: also called sulfated CCR8 N-terminal peptide pm5
Procedure, shortened: as §1

pm6 = target: T7, pm6 (Y16 and Y17 sulfated; Y15 not sulfated); assay: ELISA on coated peptide [cont.]
T7 construct: also called sulfated CCR8 N-terminal peptide pm6
Procedure, shortened: as §1

pm8 = target: T8, pm8 (Y15, Y16 and Y17 sulfated); assay: ELISA on coated peptide [cont.]
T8 construct: also called sulfated CCR8 N-terminal peptide pm8
Procedure, shortened: as §1

[4] = target: T9, human CCR8 with a SNAP-tag at the N-terminus (human, UniProt P51685 1-355, SNAP-tag labelled covalently with Lumi4-Terbium); assay: HTRF Tag-lite, inhibition of hCCL1-AF647 binding to SNAP-hCCR8 on HEK-293 cells
T9 construct: also called hCCR8 SNAP-tag; CCR8 SNAP-tag
Method: (§2) The inhibition of CCL1 binding to hCCR8 was evaluated with the Tag-Lite® technology from Cisbio (Revvity). Human CCR8 is engineered with a SNAP-tag at the N-terminus of the GPCR. hCCR8 SNAP-tag is transiently transfected on HEK-293 cell line using FuGene® (Promega, Madison, WI, USA). 48 hours after transfection, cells are labeled with the substrate Lumi4-Terbium® (Cisbio, Codolet, France) which covalently reacts with the SNAP-tag, for 1 h at 37° C. Thawed or freshly labeled cells are plated in a 384 low volume white plate (GREINER Bio-One, Courtaboeuf, France) (10000 cells/well/10 μl). […] The Kd was previously obtained in a saturation binding assay on the same cells. […] The plate is next incubated at 21° C. for 2 h. Detection of HTRF signal is performed on the multiplate reader EnVision (PerkinElmer, Waltham, MA, USA). The HTRF (665/620) ratio is calculated by EnVision software, the data exported are considered as the total binding. The specific binding is calculated then by subtracting the non-specific signal from the total binding. The Ki and IC₅₀ are calculated using the “One site-Fit Ki” and “One site-FitlogIC50” from GraphPad Prism 9 (Graphpad Software, San Diego, CA, USA), respectively.

[5] = target: T9, human CCR8 with a SNAP-tag at the …; assay: as above; remark: listed apart in the source
Method: as §2

human CCR8 [6] = target: T1, human CCR8; assay: cell-based or functional assay; remark: listed apart in the source
human CCR8 [7] = target: T1, human CCR8; assay: cell-based or functional assay; remark: listed apart in the source
human CCR8 [8] = target: T1, human CCR8; assay: cell-based or functional assay; remark: listed apart in the source
human CCR8 [9] = target: T1, human CCR8; assay: cell-based or functional assay; remark: listed apart in the source
pwt1 = target: T10, pwt1 (none (unmodified peptide)); assay: ELISA on coated peptide [cont.]
T10 construct: also called unmodified CCR8 N-terminal peptide
Procedure, shortened: as §1

human CCR8 [10] = target: T1, human CCR8; assay: flow cytometry, HUT78 cells (endogenous CCR8)
Method: In human activated T cells model, prior to mAb incubation, cells were first incubated with 200 nM of hCCL1 (R&D Systems, Minneapolis, MN, USA) or buffer PBS (Invitrogen by Thermofisher Scientific, Illkirch-Graffenstaden, France) supplemented by 2% Fetal Bovine Serum (Invitrogen by Thermofisher Scientific, Illkirch-Graffenstaden, France) and 2 mM EDTA (Invitrogen by Thermofisher Scientific, Illkirch-Graffenstaden, France) during 1 hour at 4° C. To determine EC50 value, 8 concentrations of anti-CCR8 mAb were tested. Unbound antibodies were washed away with PBS (Invitrogen by Thermofisher Scientific, Illkirch-Graffenstaden, France) supplemented by 2% Fetal Bovine Serum (Invitrogen by Thermofisher Scientific, Illkirch-Graffenstaden, France) and 2 mM EDTA (Invitrogen by Thermofisher Scientific, Illkirch-Graffenstaden, France). Subsequently, cells are centrifuged (5 min at 400 g) and bound antibody is detected with F(ab′)2-Goat anti-Mouse IgG (H+L) Cross-Adsorbed Secondary Antibody, Alexa Fluor 488 (dilution 1/500) (Invitrogen by Thermofisher Scientific, Illkirch-Graffenstaden, France) or with F(ab′)₂-Goat anti-Human IgG Fc Secondary Antibody, PE (Invitrogen by Thermofisher Scientific, Illkirch-Graffenstaden, France) (dilution 1/1000) at 4° C. for 30 min. Detection reagent is washed away and cells are centrifuged (5 min at 400 g) and resuspended in 30 μL PBS. Bound detection antibody is quantified on a MacsQuant16 (Miltenyi, Gladbach, Germany) (B1 or B2 channel, 5000 events per acquisition). During the experiment, the respective isotype mAb controls (mouse IgG1, mouse IgG2a, mouse IgG2b, mouse IgG3 or human IgG1) (Biolegend, Amsterdam, The Netherlands) are included to exclude any unspecific binding events. EC50 values were determined via nonlinear fit “log (agonist) vs.response—Variable slope (four parameters)” function of Graphpad prism. EC50 values were not constantly determined in the same experiments.
Anti-CCR8 mAb cellular reactivity was also evaluated on native human CCR8 from HUT78 cell line by flow cytometry. In Table 4.3, Mean Fluorescence Intensity (Fold change to isotype control), the percentage of labelled cells and EC50 in nM of some anti-CCR8 antibodies are presented.

[11] = target: T9, human CCR8 with a SNAP-tag at the …; assay: cell-based or functional assay

T5 sequence (peptide, as listed by the source): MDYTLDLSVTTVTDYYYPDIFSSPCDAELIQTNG
T8 sequence (peptide, as listed by the source): as above
T2 sequence (peptide, as listed by the source): as above
T3 sequence (peptide, as listed by the source): as above
T4 sequence (peptide, as listed by the source): as above
T6 sequence (peptide, as listed by the source): as above
T7 sequence (peptide, as listed by the source): as above
T10 sequence (peptide, as listed by the source): as above

ADCC % max lysis, HUT78 targets, NK donor 3 (human CCR8 [1])	ADCC % max lysis, HUT78 targets, NK donor 4 (human CCR8 [1])	ADCC EC50, HUT78 targets, NK donor 3 (human CCR8 [1])	ADCC EC50, HUT78 targets, NK donor 4 (human CCR8 [1])	ADCP % max phagocytosis, HUT78 targets, MDM donor 9 (human CCR8 [2])	IC50 of CCL1-induced hCCR8 Gi2 signaling (BRET, HEK-293) (human CCR8 [3])	binding result (pm1)	binding result (pm2)	binding result (pm3)	binding result (pm4)	binding result (pm5)	binding result (pm6)	binding result (pm8)	IC50 [5]	Ki [5]	residual hCCL1 (100 nM) Gi2 response, protocol #2, mAb 0.08 µg/mL (human CCR8 [6])	residual hCCL1 (100 nM) Gi2 response, protocol #2, mAb 0.4 µg/mL (human CCR8 [6])	residual hCCL1 (100 nM) Gi2 response, protocol #2, mAb 10 µg/mL (human CCR8 [6])	residual hCCL1 (100 nM) Gi2 response, protocol #3, mAb 0.05 µg/mL (human CCR8 [6])	% of labelled cells (human CCR8 [10])	Binder	also measured
25%	28%	0.218 nM	0.053 nM	7.27%	–	–	–	–	–	–	–	–	–	–	–	–	–	–	–	anti-CCR8 mAb 1-34 (antibody, human IgG1, kappa) heavy: not shown light: DVVMTQTPLSLPVSLGDQASISCRCTQSLLHTNGDTYLHWYLQKPGQSPKLLIYKVSNRFSGVPDRFSGSGSGTDFTLKISRVEAEDLGVYFCSQSTHVPYTFGGGTKLEIKRTVAAPSVFIFPPSDEQLKSGTASVVCLLNNFYPREAKVQWKVDNALQSGNSQESVTEQDSKDSTYSLSSTLTLSKADYEKHKVYACEVTHQGLSSPVTKSFNRGEC	–
–	–	–	–	–	0.048 µg/mL and 0.318 nM	binds	binds	binds	binds	binds	binds	binds	0.02 µg/mL	0.01 µg/mL and 0.06 nM	–	–	–	–	–	anti-CCR8 mAb 1-19 (antibody, human IgG1, kappa, V domains shown, Humanized mAb, human IgG1 / kappa) VH: EVQLVESGGGLVQPGRSLRLSCTASGFTFNTYAMNWVRQAPGKGLEWVARIRSKSNNYATYYAASVKGRFTISRDDSKSIAYLQMNSLKTEDTAVYYCVRGREAYYRYDGGYYAMDVWGQGTTVTVSS VL: DIVMTQAAPSLPVTPGESASISCRSSKSLLHSNGNTYLYWFLQKPGQSPQLLIYRMSNLASGVPDRFSGSGSGTAFTLKISRVEAEDVGVYYCMQHLEYPFTFGSGTKLEIKR	IC50 [4]: 0.1 to 1 nM
–	–	–	–	9.65%	0.035 µg/mL and 0.232 nM	binds	binds	binds	binds	binds	binds	binds	0.09 µg/mL and 0.6 nM	0.05 µg/mL and 0.3 nM	74%	54%	40%	89%	32%	anti-CCR8 mAb 1-21 (antibody, human IgG1, kappa, Humanized mAb; Fc from human IgG1 allotype G1m17 with the terminal lysine deleted and the SDIE mutations (already in the entry)) heavy: not shown light: DIVMTQAAPSLSVTPGESASISCTSSKSLLHSNGNTYLYWFLQKPGQSPQLLIYRMSNLASGVPDRFSGSGSGTAFTLKISRVEAEDVGVYYCMQHREYPFTFGSGTKLEIKRTVAAPSVFIFPPSDEQLKSGTASVVCLLNNFYPREAKVQWKVDNALQSGNSQESVTEQDSKDSTYSLSSTLTLSKADYEKHKVYACEVTHQGLSSPVTKSFNRGEC	residual hCCL1 (100 nM) Gi2 response, protocol #3, mAb 0.5 µg/mL (human CCR8 [6]): 63%; residual hCCL1 (100 nM) Gi2 response, protocol #3, mAb 5 µg/mL (human CCR8 [6]): 51%; extrapolated top plateau of hCCL1 curve with 5 µg/mL mAb, protocol #3 (human CCR8 [7]): 138000 % of hCCL1 (100 nM); IC50 of CCL1-induced hCCR8 Gi2 signaling (BRET), pH 6.5 (human CCR8 [8]): 0.025 µg/ml and 0.165 nM; IC50 of CCL1-induced hCCR8 Gi2 signaling (BRET), pH 7.4 (human CCR8 [8]): 0.035 µg/ml and 0.232 nM; ADCC % max lysis, HUT78 targets, NK donor 1 (human CCR8 [9]): 30%; ADCC % max lysis, HUT78 targets, NK donor 2 (human CCR8 [9]): 28%; ADCC EC50, HUT78 targets, NK donor 1 (human CCR8 [9]): 0.00643 nM; ADCC EC50, HUT78 targets, NK donor 2 (human CCR8 [9]): 0.00042 nM; binding result (pwt1): binds
–	–	–	–	8.29%	–	–	–	–	–	–	–	–	–	–	–	–	–	–	34%	anti-CCR8 mAb 1-26 (antibody, human IgG1, kappa, afucosylated Fc glycan, Afucosylated humanized mAb; same chains as 1-21) heavy: not shown light: DIVMTQAAPSLSVTPGESASISCTSSKSLLHSNGNTYLYWFLQKPGQSPQLLIYRMSNLASGVPDRFSGSGSGTAFTLKISRVEAEDVGVYYCMQHREYPFTFGSGTKLEIKRTVAAPSVFIFPPSDEQLKSGTASVVCLLNNFYPREAKVQWKVDNALQSGNSQESVTEQDSKDSTYSLSSTLTLSKADYEKHKVYACEVTHQGLSSPVTKSFNRGEC	ADCC % max lysis, HUT78 targets, NK donor 1 (human CCR8 [9]): 22%; ADCC % max lysis, HUT78 targets, NK donor 2 (human CCR8 [9]): 20%; ADCC EC50, HUT78 targets, NK donor 1 (human CCR8 [9]): 0.00224 nM; ADCC EC50, HUT78 targets, NK donor 2 (human CCR8 [9]): 0.00216 nM; EC50 (human CCR8 [10]): 0.4 nM; MFI fold change to isotype ctrl (human CCR8 [10]): 2.5 fold
15%	16%	0.505 nM	0.573 nM	–	0.022 µg/mL and 0.148 nM	binds	binds	binds	binds	binds	binds	binds	0.04 µg/mL	0.02 µg/mL	67%	55%	32%	86%	96%	anti-CCR8 mAb 1-23 (antibody, human IgG1, kappa, V domains shown, Humanized mAb, human IgG1 / kappa) VH: QVQLVQSGPEVVKPGASVKVSCKTSGYTFTEYTIHWVRQAPGQSLEWVGGINPNNGNTRYDQKFQGRVTITRDKSASTAYMELRSLTSEDTAVYYCARVARSSGSGPYAMDYWGQGTTVTVSS VL: DVVMTQSPLSLPVTLGDQASISCRCSQSLLHTNGDTYLHWYLQRPGQSPRLLIYKVSNRFSGVPDRFSGSGSGTDFTLKISRVEAEDVGVYFCSQSTHVPYTFGGGTKVEIKR	residual hCCL1 (100 nM) Gi2 response, protocol #3, mAb 0.5 µg/mL (human CCR8 [6]): 60%; residual hCCL1 (100 nM) Gi2 response, protocol #3, mAb 5 µg/mL (human CCR8 [6]): 42%; extrapolated top plateau of hCCL1 curve with 5 µg/mL mAb, protocol #3 (human CCR8 [7]): 569000 % of hCCL1 (100 nM); % hCCR8 internalization with CCL1 300 nM, mAb 1 µg/ml (HTRF) [11]: 44%; % hCCR8 internalization with CCL1 300 nM, mAb 10 µg/ml (HTRF) [11]: 29%; binding result (pwt1): binds

— patent publication US20260132208A1 (DOMAIN THERAPEUTICS, published 2026)
